The values below come from PMC10296094 (2023).

The target of assay [1] is fluorescein-labelled CaMKII peptide (Homo sapiens (Human), UniProt Q9UQM7, fluorescein attached to the non-native cysteine added to the N-terminus). As to the kind of experiment: fluorescence polarisation/anisotropy; Ca2+ (1 mM CaCl2).
The target of assay [2] is fluorescein-labelled PMCA peptide (Bos taurus (Bovine), UniProt D3K0R6, fluorescein attached to the C-terminal native Lys). The assay is described as above.
Sequence of fluorescein-labelled PMCA peptide (D3K0R6 1086-1105): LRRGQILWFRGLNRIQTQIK

Sequence of fluorescein-labelled CaMKII peptide (Q9UQM7 other isoform, or with tags, fused parts or gaps): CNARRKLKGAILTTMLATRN

B1: His6-tagged human centrin1 (protein)
chain: MASGFKKPSAASTGQKRKVAPKPELTEDQKQEVREAFDLFDVDGSGTIDAKELKVAMRALGFEPRKEEMKKMISEVDREGTGKISFNDFLAVMTQKMSEKDTKEEILKAFRLFDDDETGKISFKNLKRVANELGENLTDEELQEMIDEADRDGDGEVNEEEFLRIMKKTSLY
In the case of B1, the binding result in assay [1] and in assay [2] was “no binding” each time.
